Experimental findings from patent US20230136228A1 (LAMKAP BIO ALPHA, published 2023) are described below.

Where only a bound is given, the exact number is not on record here.

Experiment [1] concerns the target T1, human CEACAM5 (carcinoembryonic antigen, CEA), cell surface (human, UniProt P06731 35-685).
T1 construct: whole, on cells; also called CD66e
T1 sequence (looked up): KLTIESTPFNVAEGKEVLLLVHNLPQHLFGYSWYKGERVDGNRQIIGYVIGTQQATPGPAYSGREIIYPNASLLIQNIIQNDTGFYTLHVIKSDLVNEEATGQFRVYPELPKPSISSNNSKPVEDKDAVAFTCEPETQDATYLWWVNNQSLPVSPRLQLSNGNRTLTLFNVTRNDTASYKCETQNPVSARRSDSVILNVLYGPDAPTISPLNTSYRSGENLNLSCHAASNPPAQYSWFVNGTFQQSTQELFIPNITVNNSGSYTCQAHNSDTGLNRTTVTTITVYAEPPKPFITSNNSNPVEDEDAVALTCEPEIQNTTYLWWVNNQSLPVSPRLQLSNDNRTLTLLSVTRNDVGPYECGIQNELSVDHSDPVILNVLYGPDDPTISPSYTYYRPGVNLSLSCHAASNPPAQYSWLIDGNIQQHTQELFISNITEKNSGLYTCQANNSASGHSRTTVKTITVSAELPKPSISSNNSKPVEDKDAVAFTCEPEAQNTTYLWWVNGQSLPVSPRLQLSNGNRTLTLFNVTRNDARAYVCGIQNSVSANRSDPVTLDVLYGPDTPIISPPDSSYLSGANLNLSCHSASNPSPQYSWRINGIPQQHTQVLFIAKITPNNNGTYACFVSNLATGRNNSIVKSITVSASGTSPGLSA
As to the kind of experiment: flow cytometry, MKN-45 cells. From the text: Examples of cells that can be used include CEACAM5-positive cell lines such as the gastric adenocarcinoma cell line MKN45 (expressing 155′000 CEACAM5 molecules per cell), or the pancreatic adenocarcinoma cell line HPAF-II (expressing 108′000 CEACAM5 molecules per cell) or the colorectal adenocarcinoma cell line LS174T (expressing 26′000 CEACAM5 molecules per cell) and CEACAM5-negative cell lines, such as the lung carcinoma cell line A549 and the MKN45 CEACAM5-knock out cell line generated by CRISPR-CAS9 methodology. Cell staining and binding assessment can be performed as described above. Binding of the bsAb of the invention at 200 nM, 1000 nM and 5000 nM is 40% and higher compared to binding of TCB2014 (see Table 4 and also FIGS. 11 and 14).

In experiment [2] the target is T1, human CEACAM5 (carcinoembryonic …). The experiment is described as follows: flow cytometry, MFI on transfected PEAK cells divided by MFI on WT PEAK cells. How it is done: (§1) Similarly, vectors encoding the full-length version of cyno CEACAM 5 and 6 are also used to express these proteins at the surface of PEAK and/or CHO cells. Non-transfected PEAK and/or CHO cells are used as negative control. Cells are harvested, counted, checked for viability and resuspended at 3×10⁶ cells/ml in FACS buffer (PBS 2% BSA, 0.1% NaN₃). 100 μl of the cell suspension are distributed in V-bottom 96-well plates (3×10⁵ cells/well). The supernatant is removed by centrifugation 3 minutes at 4° C., 1300 rpm and the cells incubated for 15 minutes at 4° C. with increasing concentrations of the antibody according to the invention. The antibodies carrying the anti-CEACAM5 arms to test are diluted in FACS buffer and the concentration range is 30 pM-500 nM. Cells are washed twice with cold FACS buffer and re-incubated for further 15 minutes at 4° C. with a compatible anti-human IgG secondary antibody. Cells are washed twice with cold FACS buffer and resuspended in 300 μl FACS buffer with 1:1500-diluted TOPRO-3 (Invitrogen). Fluorescence is measured using a FACSCalibur™ (BD Biosciences) or a Cytoflex Platform (Beckman Coulter). Dose-response binding curves are fitted using GraphPad Prism8 software. In the same manner, CEACAM1, CEACAM6 and other CEACAMs can be characterized.
(§2) For the bispecific antibodies AB17L3-1/N, AB71L3-1/N, AB72L3-1/N, AB73L3-1/N the MFI measured for binding to CEACAM5 transfected cells was found between 29000 and 41000 (Table 2). In contrast MFI found by using PEAK cells transfected with CEACAM 1,3,4,6,8 were found below 1000 with the only exception of a strong signal for AB72L3-1/N on CEACAM8 transfected cells. When MFI values obtained on transfected cells expressing any given CEACAM are divided by the values obtained on WT PEAK cells, “factors to PEAK WT” can be calculated (Table 3). With the exception of AB72L3-1/N, the antibodies of the invention are all specific to CEACAM5, as the “factor to PEAK WT” values are all below 2.0.
(A flow cytometer gives signals particle by particle.)

For the next experiment, the target named is T2, human CEACAM1 (human, UniProt P13688 35-526).
T2 construct: whole, on cells
T2 sequence (looked up): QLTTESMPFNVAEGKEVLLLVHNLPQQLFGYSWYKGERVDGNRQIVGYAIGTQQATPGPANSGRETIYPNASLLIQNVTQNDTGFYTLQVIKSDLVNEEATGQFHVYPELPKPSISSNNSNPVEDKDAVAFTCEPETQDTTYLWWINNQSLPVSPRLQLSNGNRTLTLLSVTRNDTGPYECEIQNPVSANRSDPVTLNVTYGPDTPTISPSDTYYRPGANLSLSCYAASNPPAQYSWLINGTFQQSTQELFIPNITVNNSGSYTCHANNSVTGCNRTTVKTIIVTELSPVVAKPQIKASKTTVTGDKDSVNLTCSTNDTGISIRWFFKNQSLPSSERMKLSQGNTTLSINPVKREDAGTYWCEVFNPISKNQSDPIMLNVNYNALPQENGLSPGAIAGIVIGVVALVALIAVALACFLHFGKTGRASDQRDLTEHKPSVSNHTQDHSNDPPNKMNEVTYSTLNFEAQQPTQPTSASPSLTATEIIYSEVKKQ
The description is as above. How it is done: as §1, §2

B1: AB17L3-1/N (bispecific antibody, human IgG1, kappa, lambda, L234A L235A)
heavy: EVQLVESGGGLVQPGGSLKLSCAASGFTFNTYAMNWVRQAPGKGLEWVGRIRSKYNNYATYYADSVKDRFTISRDDSKNTAYLQMNSLKTEDTAVYYCVRHGNFGNSYVSWFAYWGQGTLVTVSSASTKGPSVFPLAPSSKSTSGGTAALGCLVKDYFPEPVTVSWNSGALTSGVHTFPAVLQSSGLYSLSSVVTVPSSSLGTQTYICNVNHKPSNTKVDKRVEPKSCDKTHTCPPCPAPEAAGGPSVFLFPPKPKDTLMISRTPEVTCVVVDVSHEDPEVKFNWYVDGVEVHNAKTKPREEQYNSTYRVVSVLTVLHQDWLNGKEYKCKVSNKALAAPIEKTISKAKGQPREPQVYTLPPSREEMTKNQVSLTCLVKGFYPSDIAVEWESNGQPENNYKTTPPVLDSDGSFFLYSKLTVDKSRWQQGNVFSCSVMHEALHNHYTQKSLSLSPG
light 1: EIVLTQSPATLSLSPGERATLSCRASQSVNSNLNWYQQKPGQAPRLLIYHGSNRATGIPARFSGSGSGTDFTLTISSLEPEDFAVYYCQQFDYFKEHNTFGQGTKVEIKRTVAAPSVFIFPPSDEQLKSGTASVVCLLNNFYPREAKVQWKVDNALQSGNSQESVTEQDSKDSTYSLSSTLTLSKADYEKHKVYACEVTHQGLSSPVTKSFNRGEC
light 2: QTVVTQEPSLTVSPGGTVTLTCRSSTGAVTTSNYANWFQQKPGQAPRGLIGGTNKRAPGTPARFSGSLLGGKAALTLSGAQPEDEAEYYCALWYKQRWVFGGGTKLTVLGQPKAAPSVTLFPPSSEELQANKATLVCLISDFYPGAVTVAWKADSSPVKAGVETTTPSKQSNNKYAASSYLSLTPEQWKSHRSYSCQVTHEGSTVEKTVAPTECS
notes: Kappa-lambda body, lead optimization wave 1
Turning to B1, in experiment [1], the concentration for a half-maximal effect (EC50) (commonly the concentration giving half of the maximal effect) was 59.2 nM; the “Top MFI value” is 862000 MFI; the “binding higher than TCB2014 (at 200 nM, 1000 nM and 5000 nM)” value is at least 40%. Moreover, the “Factor to PEAK WT” value in experiment [2] is 55.1 fold. Further, the “Factor to PEAK WT” value in the experiment with human CEACAM1 turned out to be 1.2 fold.

B2: AB1L3-1/N (bispecific antibody, human IgG1, kappa, lambda, L234A L235A)
heavy: EVQLVESGGGLVQPGGSLKLSCAASGFTFNTYAMNWVRQAPGKGLEWVGRIRSKYNNYATYYADSVKDRFTISRDDSKNTAYLQMNSLKTEDTAVYYCVRHGNFGNSYVSWFAYWGQGTLVTVSSASTKGPSVFPLAPSSKSTSGGTAALGCLVKDYFPEPVTVSWNSGALTSGVHTFPAVLQSSGLYSLSSVVTVPSSSLGTQTYICNVNHKPSNTKVDKRVEPKSCDKTHTCPPCPAPEAAGGPSVFLFPPKPKDTLMISRTPEVTCVVVDVSHEDPEVKFNWYVDGVEVHNAKTKPREEQYNSTYRVVSVLTVLHQDWLNGKEYKCKVSNKALAAPIEKTISKAKGQPREPQVYTLPPSREEMTKNQVSLTCLVKGFYPSDIAVEWESNGQPENNYKTTPPVLDSDGSFFLYSKLTVDKSRWQQGNVFSCSVMHEALHNHYTQKSLSLSPG
light 1: EIVLTQSPATLSLSPGERATLSCRASQSVNSNLNWYQQKPGQAPRLLIYHGSNRATGIPARFSGSGSGTDFTLTISSLEPEDFAVYYCQQFDLRHEHNTFGQGTKVEIKRTVAAPSVFIFPPSDEQLKSGTASVVCLLNNFYPREAKVQWKVDNALQSGNSQESVTEQDSKDSTYSLSSTLTLSKADYEKHKVYACEVTHQGLSSPVTKSFNRGEC
light 2: QTVVTQEPSLTVSPGGTVTLTCRSSTGAVTTSNYANWFQQKPGQAPRGLIGGTNKRAPGTPARFSGSLLGGKAALTLSGAQPEDEAEYYCALWYKQRWVFGGGTKLTVLGQPKAAPSVTLFPPSSEELQANKATLVCLISDFYPGAVTVAWKADSSPVKAGVETTTPSKQSNNKYAASSYLSLTPEQWKSHRSYSCQVTHEGSTVEKTVAPTECS
notes: Kappa-lambda body: common heavy chain (hIgG1 L234A+L235A+P329A), kappa CEA light chain AB1, lambda CD3 light chain L3-1 (1A4); also called parental KL bispecific antibody
In the case of B2, the “Factor to PEAK WT” value was 16.8 fold in experiment [2] and 1 fold in the experiment with human CEACAM1.

B3: AB71L3-1/N (bispecific antibody, human IgG1, kappa, lambda, L234A L235A)
heavy: EVQLVESGGGLVQPGGSLKLSCAASGFTFNTYAMNWVRQAPGKGLEWVGRIRSKYNNYATYYADSVKDRFTISRDDSKNTAYLQMNSLKTEDTAVYYCVRHGNFGNSYVSWFAYWGQGTLVTVSSASTKGPSVFPLAPSSKSTSGGTAALGCLVKDYFPEPVTVSWNSGALTSGVHTFPAVLQSSGLYSLSSVVTVPSSSLGTQTYICNVNHKPSNTKVDKRVEPKSCDKTHTCPPCPAPEAAGGPSVFLFPPKPKDTLMISRTPEVTCVVVDVSHEDPEVKFNWYVDGVEVHNAKTKPREEQYNSTYRVVSVLTVLHQDWLNGKEYKCKVSNKALAAPIEKTISKAKGQPREPQVYTLPPSREEMTKNQVSLTCLVKGFYPSDIAVEWESNGQPENNYKTTPPVLDSDGSFFLYSKLTVDKSRWQQGNVFSCSVMHEALHNHYTQKSLSLSPG
light 1: EIVLTQSPATLSLSPGERATLSCRASQSVNSNLNWYQQKPGQAPRLLIYHSSNRPHGIPARFSGSGSGTDFTLTISSLEPEDFAVYYCQQFDYFKEHNTFGQGTKVEIKRTVAAPSVFIFPPSDEQLKSGTASVVCLLNNFYPREAKVQWKVDNALQSGNSQESVTEQDSKDSTYSLSSTLTLSKADYEKHKVYACEVTHQGLSSPVTKSFNRGEC
light 2: QTVVTQEPSLTVSPGGTVTLTCRSSTGAVTTSNYANWFQQKPGQAPRGLIGGTNKRAPGTPARFSGSLLGGKAALTLSGAQPEDEAEYYCALWYKQRWVFGGGTKLTVLGQPKAAPSVTLFPPSSEELQANKATLVCLISDFYPGAVTVAWKADSSPVKAGVETTTPSKQSNNKYAASSYLSLTPEQWKSHRSYSCQVTHEGSTVEKTVAPTECS
notes: Kappa-lambda body, lead optimization wave 2
For the molecule B3, in experiment [1], the EC50 was 34.1 nM; the “Top MFI value” came to 833000 MFI; the “binding higher than TCB2014 (at 200 nM, 1000 nM and 5000 nM)” value was at least 40%. Also, in experiment [2], the “Factor to PEAK WT” value was found to be 79.7 fold. The “Factor to PEAK WT” value in the experiment with human CEACAM1 was found to be 1 fold.
